Laboratory results published in patent US10370433B2, “Compositions and methods for diagnosis and treatment of cancer” (BIONTECH AG, priority 2015, dated 2019).

Legend:
[1] = biological target: T1, recombinant human Seprase (rhuSeprase) (Homo sapiens, UniProt Q12884); assay: Surface plasmon resonance (Biacore T100) on immobilized rhuSeprase; type: binding
T1 construct: named pCEP4-IgKappa-huSeprase-coCHO_26-760aa-H6 and used for the generation of recombinant soluble human Seprase (rhuSeprase); mouse Ig kappa-chain V-J2-C secretion signal (N, cleaved yes); made in house; host or cells: FreeStyle CHO-S cells (transient transfection; purified from supernatant by Ni-chelate and SEC)
T1 sequence (Q12884 26-760): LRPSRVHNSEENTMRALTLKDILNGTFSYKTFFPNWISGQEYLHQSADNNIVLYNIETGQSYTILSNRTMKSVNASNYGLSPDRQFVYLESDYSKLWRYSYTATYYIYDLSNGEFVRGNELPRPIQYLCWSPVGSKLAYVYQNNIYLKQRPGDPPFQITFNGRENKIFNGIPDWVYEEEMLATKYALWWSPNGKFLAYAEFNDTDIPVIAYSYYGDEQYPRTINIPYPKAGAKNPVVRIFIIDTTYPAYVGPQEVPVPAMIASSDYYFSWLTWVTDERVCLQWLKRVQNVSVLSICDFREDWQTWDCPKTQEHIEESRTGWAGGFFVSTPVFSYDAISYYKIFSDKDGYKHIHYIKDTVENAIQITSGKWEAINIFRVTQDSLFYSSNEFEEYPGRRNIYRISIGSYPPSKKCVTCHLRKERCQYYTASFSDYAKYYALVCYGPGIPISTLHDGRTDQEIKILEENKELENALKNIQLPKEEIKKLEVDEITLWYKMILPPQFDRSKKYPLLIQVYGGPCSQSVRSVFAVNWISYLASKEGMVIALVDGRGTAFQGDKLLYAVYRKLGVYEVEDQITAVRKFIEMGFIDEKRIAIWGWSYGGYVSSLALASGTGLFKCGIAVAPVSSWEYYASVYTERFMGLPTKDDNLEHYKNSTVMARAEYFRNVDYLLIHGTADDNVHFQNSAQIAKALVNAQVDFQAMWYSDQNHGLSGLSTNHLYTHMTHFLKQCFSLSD

CHO-K1-huSeprase tumors = assay: Biodistribution and tumor targeting of AlexaFluor-680 conjugates, near-infrared optical imaging; type: in vivo, Fox n1 nu mice
Experimental: For in vivo imaging assays female Fox n1 nu mice (6-8 weeks of age, Harlan, Envigo) were used. The experiments were performed according to national regulations and approved by the local animal experiments ethical committee. Subconfluent CHO-K1-huSeprase cells were harvested and resuspended in PBS to a density of 1×10^7 cells/ml. Prior to inoculation, cell viability was tested by 0.4% trypan blue exclusion assay (viable cells>90%). For subcutaneous injection 1×10^6 CHO-K1-huSeprase cells in 100 μl PBS were mixed with 100 μl Matrigel (Corning) and injected into the right side of the limb. When tumor volumes reached 600-800 mm^3, animals were randomly separated into several groups for different treatments (n=3 per each group). […] At different time points after the injection, mice were anaesthetized by inhalation of isoflurane. In vivo imaging was conducted using a Xenogen IVIS Spectrum imaging System (Perkin Elmer, USA). Maximal near infrared signals (NIRF) were quantified using Living Image 2.5 (Xenogen, Perkin Elmer) image analysis software. For ex vivo NIRF imaging, the mice were sacrificed, and the tumor and major organs of each mouse were excised, weighed and analyzed by Xenogen IVIS System.
To analyze the pharmacokinetic and tumor targeting properties of the AF680-(MC-FA-012)3 trimer biodistribution in female Fox n1 nu mice was monitored at six time points after injection (1, 2, 4, 6, 24 and 96 h). […] After each time point biodistibution was measured in vivo and ex vivo using a Xenogen Imaging system (FIG. 14 A+B). […] Overall, the background signals for the binder and for the non-binding control were in the same range.

B1: AF680-(MC-FA-012)3: AlexaFluor 680 conjugated MC-FA-012 trimer (conjugate)
chain 1: GACPYSNWTPGRGPDCRRDSDCPGRCICRGNGYCG
chain 2: B1 chain 1
chain 3: B1 chain 1
modifications: left off: things letters cannot carry; small tags and cut ends
notes: AlexaFluor 680 conjugated MC-FA-012 trimer
[1]
  offrate, times slower compared to MC-FA-012: around 134 times
[1]; 1:1 binding model
  ka: 1.68e+07 M⁻¹ s⁻¹
CHO-K1-huSeprase tumors; mouse, in vivo
  kidney signals: strong kidney signals
  signals in lung, heart, spleen and liver: generally low
CHO-K1-huSeprase tumors; up to 24 h after injection
  tumor uptake: specific and significant tumor uptake
